Experimental data as given in publication PMC6769508.
Several values for one entry are separate records, joined by “and”; a condition that tells them apart may be missing. Equal values may be shown once.

Tests used:
[1] = target: TeSasA, T. elongatus SasA (wild type, full-length) (Thermosynechococcus elongatus); experiment: native MS; TeSasA or TeSasAN alone; 150 mM ammonium acetate, pH 6.8
[2] = target: TeKaiCDD, T. elongatus KaiC mutant with Ser431 and Thr432 substituted by aspartate residues (Thermosynechococcus elongatus) (UniProt Q79V60); experiment: native MS; TeKaiCDD (20 µM) titrated with KaiB or SasA proteins, incubated at 37 °C for 6 h, buffer-exchanged into 150 mM ammonium acetate, pH 6.8; nanoflow ESI
TeKaiCDD, T. elongatus KaiC mutant with Ser431 and Thr432 substituted by aspartate residues (Thermosynechococcus elongatus), sequence (Q79V60 other isoform, or with tags, fused parts or gaps mutant): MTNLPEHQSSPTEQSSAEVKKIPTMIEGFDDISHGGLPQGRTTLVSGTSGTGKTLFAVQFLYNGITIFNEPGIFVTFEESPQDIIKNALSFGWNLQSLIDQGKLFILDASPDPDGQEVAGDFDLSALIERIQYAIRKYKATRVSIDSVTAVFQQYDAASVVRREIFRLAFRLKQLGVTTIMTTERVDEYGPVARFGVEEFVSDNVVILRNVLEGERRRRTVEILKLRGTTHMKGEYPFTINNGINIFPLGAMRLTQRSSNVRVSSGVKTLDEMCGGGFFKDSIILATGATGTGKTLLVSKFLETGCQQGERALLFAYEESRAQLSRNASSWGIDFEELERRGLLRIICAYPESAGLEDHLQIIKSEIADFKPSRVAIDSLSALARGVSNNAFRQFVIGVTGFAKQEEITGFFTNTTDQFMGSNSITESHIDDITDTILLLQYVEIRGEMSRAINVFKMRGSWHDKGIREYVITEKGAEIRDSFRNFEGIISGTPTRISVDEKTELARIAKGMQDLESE

stoichiometry N [1]	stoichiometry N (binder chains per KaiC hexamer) [2]	Substance
2	2 and 4 and 6	TeSasA, T. elongatus SasA (wild type, full-length) (natural protein)
	2 and 3 and 4	TeSasAN, the N-terminal domain of T. elongatus SasA (domain or fragment)
